{"source": "patent US20140341881", "proteins": {"B1": {"name": "human kallikrein 14 (hK14) (protein)", "chain": "IIGGHTCTRSSQPWQAALLAGPRRRFLCGGALLSGQWVITAAHCGRPILQVALGKHNLRRWEATQQVLRVVRQVTHPNYNSRTHDNDLMLLQLQQPARIGRAVRPIEVTQACASPGTSCRVSGWGTISSPIARYPASLQCVNINISPDEVCQKAYPRTITPGMVCAGVPQGGKDSCQGDSGGPLVCRGQLQGLVSWGMERCALPGYPGVYTNLCKYRSWIEETMRDK"}, "B2": {"name": "human neutrophil elastase (HNE) (protein)", "chain": "IVGGRRARPHAWPFMVSLQLRGGHFCGATLIAPNFVMSAAHCVANVNVRAVRVVLGAHNLSRREPTRQVFAVQRIFENGYDPVNLLNDIVILQLNGSATINANVQVAQLPAQGRRLGNGVQCLAMGWGLLGRNRGIASVLQELNVTVVTSLCRRSNVCTLVRGRQAGVCFGDSGSPLVCNGLIHGIASFVRGGCASGLYPDAFAPVAQFVNWIDSIIQ"}}, "key": {"[1]": {"target": "T1, CFP-STKGI-YFP-6xHis substrate (clone G3)", "T1 chain": "GALGGSTKGIGST"}, "[2]": {"target": "T2, CFP-AYGLA-YFP-6xHis substrate (clone G5)", "T2 chain": "GALGGAYGLAGST"}, "[3]": {"target": "T3, CFP-EAPAK-YFP-6xHis substrate (clone G7)", "T3 chain": "GALGGEAPAKGST"}, "[4]": {"target": "T4, CFP-RGKTN-YFP-6xHis substrate (peptide D9)", "T4 chain": "GALGGRGKTNGST"}, "[5]": {"target": "T5, CFP-RVTST-YFP-6xHis substrate (peptide E12)", "T5 chain": "GALGGRVTSTGST"}, "[6]": {"target": "T6, CFP-NNKLR-YFP-6xHis substrate (peptide E9)", "T6 chain": "GALGGNNKLRGST"}, "[7]": {"target": "T7, CFP-YQNSS-YFP-6xHis substrate (clone C9)", "T7 chain": "GALGGYQNSSGST"}, "[8]": {"target": "T8, CFP-PVHLY-YFP-6xHis substrate (clone F12)", "T8 chain": "GALGGPVHLYGST"}, "[9]": {"target": "T9, CFP-NQRSS-YFP-6xHis substrate (peptide E5)", "T9 chain": "GALGGNQRSSGST"}, "[10]": {"target": "T10, CFP-RVDTG-YFP-6xHis substrate (clone D11)", "T10 chain": "GALGGRVDTGGST"}, "[11]": {"target": "T11, CFP-PDRHM-YFP-6xHis substrate (peptide F3)", "T11 chain": "GALGGPDRHMGST"}, "[12]": {"target": "T12, CFP-RQTND-YFP-6xHis substrate (peptide C11)", "T12 chain": "GALGGRQTNDGST"}, "[13]": {"target": "T13, CFP-MQATK-YFP-6xHis substrate (clone F4)", "T13 chain": "GALGGMQATKGST"}, "[14]": {"target": "T14, CFP-LSRDN-YFP-6xHis substrate (peptide E7)", "T14 chain": "GALGGLSRDNGST"}, "[15]": {"target": "T15, CFP-VGSLR-YFP-6xHis substrate (peptide G1)", "T15 chain": "GALGGVGSLRGST"}, "[16]": {"target": "T16, CFP-VGLYD-YFP-6xHis substrate (peptide F6)", "T16 chain": "GALGGVGLYDGST"}, "[17]": {"target": "T17, CFP-AYGYK-YFP-6xHis substrate (peptide E1)", "T17 chain": "GALGGAYGYKGST"}, "[18]": {"target": "T18, CFP-TSYLN-YFP-6xHis substrate (peptide D7)", "T18 chain": "GALGGTSYLNGST"}, "[19]": {"target": "T19, CFP-HETLK-YFP-6xHis substrate (clone G11)", "T19 chain": "GALGGHETLKGST"}, "[20]": {"target": "T20, CFP-LQRAI-YFP-6xHis substrate (peptide E8)", "T20 chain": "GALGGLQRAIGST"}, "[21]": {"target": "T21, CFP-TTDLR-YFP-6xHis substrate (clone E4)", "T21 chain": "GALGGTTDLRGST"}, "[22]": {"target": "T22, CFP-QRLRD-YFP-6xHis substrate (peptide F11)", "T22 chain": "GALGGQRLRDGST"}, "[23]": {"target": "T23, CFP-TVDYA-YFP-6xHis substrate (peptide G9)", "T23 chain": "GALGGTVDYAGST"}, "[24]": {"target": "T24, CFP-KLKET-YFP-6xHis substrate (clone F5)", "T24 chain": "GALGGKLKETGST"}, "[25]": {"target": "T25, CFP-SDKVY-YFP-6xHis substrate (clone C5)", "T25 chain": "GALGGSDKVYGST"}, "[26]": {"target": "T26, CFP-SAVRP-YFP-6xHis substrate (clone E11)", "T26 chain": "GALGGSAVRPGST"}, "[27]": {"target": "T27, CFP-LSGGR-YFP-6xHis substrate (peptide E2)", "T27 chain": "GALGGLSGGRGST"}, "[28]": {"target": "T28, CFP-QPNGY-YFP-6xHis substrate (clone F1)", "T28 chain": "GALGGQPNGYGST"}, "[29]": {"target": "T29, CFP-YQSLN-YFP-6xHis substrate (peptide F10)", "T29 chain": "GALGGYQSLNGST"}, "[30]": {"target": "T30, CFP-VVMKD-YFP-6xHis substrate (peptide E10)", "T30 chain": "GALGGVVMKDGST"}, "[31]": {"target": "T31, CFP-GHRIN-YFP-6xHis substrate (clone F7)", "T31 chain": "GALGGGHRINGST"}, "[32]": {"target": "T32, CFP-MQVKH-YFP-6xHis substrate (clone E6)", "T32 chain": "GALGGMQVKHGST"}, "[33]": {"target": "CFP-GGGGG-YFP"}}}
{"protein": "B1", "values": [{"measurement": "kcat/Km", "setting": "[1]", "value": 20000, "unit": "M⁻¹ s⁻¹"}, {"measurement": "kcat/Km", "setting": "[2]", "value": 6000, "unit": "M⁻¹ s⁻¹"}, {"measurement": "kcat/Km", "setting": "[3]", "value": 8000, "unit": "M⁻¹ s⁻¹"}, {"measurement": "Kcat/Km", "setting": "[4]", "value": 80000, "unit": "M⁻¹ s⁻¹"}, {"measurement": "kcat/Km", "setting": "[4]", "value": 80000, "unit": "M⁻¹ s⁻¹"}, {"measurement": "Kcat/Km", "setting": "[5]", "value": 26000, "unit": "M⁻¹ s⁻¹"}, {"measurement": "kcat/Km", "setting": "[5]", "value": 26000, "unit": "M⁻¹ s⁻¹"}, {"measurement": "Kcat/Km", "setting": "[6]", "value": 74000, "unit": "M⁻¹ s⁻¹"}, {"measurement": "kcat/Km", "setting": "[6]", "value": 74000, "unit": "M⁻¹ s⁻¹"}, {"measurement": "kcat/Km", "setting": "[7]", "value": 6000, "unit": "M⁻¹ s⁻¹"}, {"measurement": "kcat/Km", "setting": "[8]", "value": 7000, "unit": "M⁻¹ s⁻¹"}, {"measurement": "Kcat/Km", "setting": "[9]", "value": 388000, "unit": "M⁻¹ s⁻¹"}, {"measurement": "fold selectivity of cleavage against PK", "setting": "[9]", "value": "27 and 78 fold more selective for hK14 than for hK2 and PK, respectively"}, {"measurement": "fold selectivity of cleavage against hK2", "setting": "[9]", "value": "27 and 78 fold more selective for hK14 than for hK2 and PK, respectively"}, {"measurement": "kcat/Km", "setting": "[9]", "value": 388000, "unit": "M⁻¹ s⁻¹"}, {"measurement": "kcat/Km", "setting": "[10]", "value": 15000, "unit": "M⁻¹ s⁻¹"}, {"measurement": "Kcat/Km", "setting": "[11]", "value": 243000, "unit": "M⁻¹ s⁻¹"}, {"measurement": "kcat/Km", "setting": "[11]", "value": 243000, "unit": "M⁻¹ s⁻¹"}, {"measurement": "Kcat/Km", "setting": "[12]", "value": 415000, "unit": "M⁻¹ s⁻¹"}, {"measurement": "kcat/Km", "setting": "[12]", "value": 415000, "unit": "M⁻¹ s⁻¹"}, {"measurement": "kcat/Km", "setting": "[13]", "value": 8000, "unit": "M⁻¹ s⁻¹"}, {"measurement": "Kcat/Km", "setting": "[14]", "value": 127000, "unit": "M⁻¹ s⁻¹"}, {"measurement": "kcat/Km", "setting": "[14]", "value": 127000, "unit": "M⁻¹ s⁻¹"}, {"measurement": "Kcat/Km", "setting": "[15]", "value": 481000, "unit": "M⁻¹ s⁻¹"}, {"measurement": "kcat/Km", "setting": "[15]", "value": 481000, "unit": "M⁻¹ s⁻¹"}, {"measurement": "Kcat/Km", "setting": "[16]", "value": 18000, "unit": "M⁻¹ s⁻¹"}, {"measurement": "kcat/Km", "setting": "[16]", "value": 18000, "unit": "M⁻¹ s⁻¹"}, {"measurement": "Kcat/Km", "setting": "[17]", "value": 24000, "unit": "M⁻¹ s⁻¹"}, {"measurement": "kcat/Km", "setting": "[17]", "value": 24000, "unit": "M⁻¹ s⁻¹"}, {"measurement": "Kcat/Km", "setting": "[18]", "value": 9000, "unit": "M⁻¹ s⁻¹"}, {"measurement": "kcat/Km", "setting": "[18]", "value": 9000, "unit": "M⁻¹ s⁻¹"}, {"measurement": "kcat/Km", "setting": "[19]", "value": 9000, "unit": "M⁻¹ s⁻¹"}, {"measurement": "Kcat/Km", "setting": "[20]", "value": 367000, "unit": "M⁻¹ s⁻¹"}, {"measurement": "kcat/Km", "setting": "[20]", "value": 367000, "unit": "M⁻¹ s⁻¹"}, {"measurement": "kcat/Km", "setting": "[21]", "value": 27000, "unit": "M⁻¹ s⁻¹"}, {"measurement": "Kcat/Km", "setting": "[22]", "value": 307000, "unit": "M⁻¹ s⁻¹"}, {"measurement": "kcat/Km", "setting": "[22]", "value": 307000, "unit": "M⁻¹ s⁻¹"}, {"measurement": "Kcat/Km", "setting": "[23]", "value": 134000, "unit": "M⁻¹ s⁻¹"}, {"measurement": "kcat/Km", "setting": "[23]", "value": 134000, "unit": "M⁻¹ s⁻¹"}, {"measurement": "kcat/Km", "setting": "[24]", "value": 19000, "unit": "M⁻¹ s⁻¹"}, {"measurement": "kcat/Km", "setting": "[25]", "value": 9000, "unit": "M⁻¹ s⁻¹"}, {"measurement": "kcat/Km", "setting": "[26]", "value": 5000, "unit": "M⁻¹ s⁻¹"}, {"measurement": "Kcat/Km", "setting": "[27]", "value": 207000, "unit": "M⁻¹ s⁻¹"}, {"measurement": "kcat/Km", "setting": "[27]", "value": 207000, "unit": "M⁻¹ s⁻¹"}, {"measurement": "kcat/Km", "setting": "[28]", "value": 6000, "unit": "M⁻¹ s⁻¹"}, {"measurement": "Kcat/Km", "setting": "[29]", "value": 12000, "unit": "M⁻¹ s⁻¹"}, {"measurement": "kcat/Km", "setting": "[29]", "value": 12000, "unit": "M⁻¹ s⁻¹"}, {"measurement": "Kcat/Km", "setting": "[30]", "value": 15000, "unit": "M⁻¹ s⁻¹"}, {"measurement": "kcat/Km", "setting": "[30]", "value": 15000, "unit": "M⁻¹ s⁻¹"}, {"measurement": "kcat/Km", "setting": "[31]", "value": 12000, "unit": "M⁻¹ s⁻¹"}, {"measurement": "kcat/Km", "setting": "[32]", "value": 34000, "unit": "M⁻¹ s⁻¹"}, {"measurement": "hydrolysis of fluorescent substrate", "setting": "[33]", "value": "is not hydrolyzed by hK14 (not shown)"}]}
{"protein": "B2", "values": [{"measurement": "Kcat/Km", "setting": "[5]", "value": 200000, "unit": "M⁻¹ s⁻¹"}, {"measurement": "Kcat/Km", "setting": "[18]", "value": 90000, "unit": "M⁻¹ s⁻¹"}, {"measurement": "Kcat/Km", "setting": "[20]", "value": 209000, "unit": "M⁻¹ s⁻¹"}, {"measurement": "Kcat/Km", "setting": "[23]", "value": 181000, "unit": "M⁻¹ s⁻¹"}, {"measurement": "Kcat/Km", "setting": "[29]", "value": 49000, "unit": "M⁻¹ s⁻¹"}, {"measurement": "Kcat/Km", "setting": "[30]", "value": 65000, "unit": "M⁻¹ s⁻¹"}]}
